# In IntAct's records for PubMed 21666598:
# B1: Shugoshin 2 (Homo sapiens), Q562F6 (parent)
# chain: MECPVMETGSLFTSGIKRHLKDKRISKTTKLNVSLASKIKTKILNNSSIFKISLKHNNRALAQALSREKENSRRITTEKMLLQKEVEKLNFENTFLRLKLNNLNKKLIDIEALMNNNLITAIEMSSLSEFHQSSFLLSASKKKRISKQCKLMRLPFARVPLTSNDDEDEDKEKMQCDNNIKSKTLPDIPSSGSTTQPLSTQDNSEVLFLKENNQNVYGLDDSEHISSIVDVPPRESHSHSDQSSKTSLMSEMRNAQSIGRRWEKPSPSNVTERKKRGSSWESNNLSADTPCATVLDKQHISSPELNCNNEINGHTNETNTEMQRNKQDLPGLSSESAREPNAECMNQIEDNDDFQLQKTVYDADMDLTASEVSKIVTVSTGIKKKSNKKTNEHGMKTFRKVKDSSSEKKRERSKRQFKNSSDVDIGEKIENRTERSDVLDGKRGAEDPGFIFNNEQLAQMNEQLAQVNELKKMTLQTGFEQGDRENVLCNKKEKRITNEQEETYSLSQSSGKFHQESKFDKGQNSLTCNKSKASRQTFVIHKLEKDNLLPNQKDKVTIYENLDVTNEFHTANLSTKDNGNLCDYGTHNILDLKKYVTDIQPSEQNESNINKLRKKVNRKTEIISGMNHMYEDNDKDVVHGLKKGNFFFKTQEDKEPISENIEVSKELQIPALSTRDNENQCDYRTQNVLGLQKQITNMYPVQQNESKVNKKLRQKVNRKTEIISEVNHLDNDKSIEYTVKSHSLFLTQKDKEIIPGNLEDPSEFETPALSTKDSGNLYDSEIQNVLGVKHGHDMQPACQNDSKIGKKPRLNVCQKSEIIPETNQIYENDNKGVHDLEKDNFFSLTPKDKETISENLQVTNEFQTVDLLIKDNGNLCDYDTQNILELKKYVTDRKSAEQNESKINKLRNKVNWKTEIISEMNQIYEDNDKDAHVQESYTKDLDFKVNKSKQKLECQDIINKHYMEVNSNEKESCDQILDSYKVVKKRKKESSCKAKNILTKAKNKLASQLTESSQTSISLESDLKHITSEADSDPGNPVELCKTQKQSTTTLNKKDLPFVEEIKEGECQVKKVNKMTSKSKKRKTSIDPSPESHEVMERILDSVQGKSTVSEQADKENNLENEKMVKNKPDFYTKAFRSLSEIHSPNIQDSSFDSVREGLVPLSVSSGKNVIIKENFALECSPAFQVSDDEHEKMNKMKFKVNRRTQKSGIGDRPLQDLSNTSFVSNNTAESENKSEDLSSERTSRRRRCTPFYFKEPSLRDKMRR
# Variants of: B1
# Conditions: with pp1a_human PPP1CA
row,effect of a mutation on the interaction,Variant
1,disrupting interaction,N58I

# Variants of: B1
# Conditions: with md2l1_human MAD2L1, Q13257
# md2l1_human MAD2L1, Q13257, sequence (Q13257 whole entry): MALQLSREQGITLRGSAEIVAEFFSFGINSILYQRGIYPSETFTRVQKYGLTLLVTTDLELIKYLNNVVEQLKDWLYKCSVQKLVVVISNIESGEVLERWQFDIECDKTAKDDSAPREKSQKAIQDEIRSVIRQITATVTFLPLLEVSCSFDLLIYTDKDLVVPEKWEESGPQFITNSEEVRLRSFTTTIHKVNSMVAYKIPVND
row,effect of a mutation on the interaction,Variant
1,disrupting interaction,R153A
